Patent US20140072613A1, “Compositions and Methods for Treating Cutaneous Scarring” (priority 2012, published 2014)

Tests used:
Assay in all cases: biochemical
Type in all cases: biochemical
266 human kinases [1] = molecular target: 266 human kinases (Homo sapiens, UniProt P07949, V804M); conditions: Ret(V804M)(h); 100 μM
Summary of the method: (§1)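 Radiometric filter-binding format: a positively charged substrate takes up radiolabelled phosphate from ATP unless the kinase is inhibited, then is captured on a negatively charged filter membrane. Counts from scintillation are expressed relative to a 100% activity control.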

266 human kinases [2] = molecular target: 266 human kinases (Homo sapiens, UniProt Q9HBH9); conditions: Mnk2(h); 100 μM
Summary of the method: as §1

266 human kinases [3] = molecular target: 266 human kinases (Homo sapiens, UniProt P50750); conditions: CDK9/cyclin T1(h); 100 μM
Summary of the method: as §1

266 human kinases [4] = molecular target: 266 human kinases (Homo sapiens, UniProt P06493); conditions: CDK1/cyclinB(h); 100 μM
Summary of the method: as §1

266 human kinases [5] = molecular target: 266 human kinases (Homo sapiens, UniProt P07333, Y969C); conditions: Fms(Y969C)(h); 100 μM
Summary of the method: as §1

Sequence of 266 human kinases (Homo sapiens, UniProt P50750) (P50750 whole entry): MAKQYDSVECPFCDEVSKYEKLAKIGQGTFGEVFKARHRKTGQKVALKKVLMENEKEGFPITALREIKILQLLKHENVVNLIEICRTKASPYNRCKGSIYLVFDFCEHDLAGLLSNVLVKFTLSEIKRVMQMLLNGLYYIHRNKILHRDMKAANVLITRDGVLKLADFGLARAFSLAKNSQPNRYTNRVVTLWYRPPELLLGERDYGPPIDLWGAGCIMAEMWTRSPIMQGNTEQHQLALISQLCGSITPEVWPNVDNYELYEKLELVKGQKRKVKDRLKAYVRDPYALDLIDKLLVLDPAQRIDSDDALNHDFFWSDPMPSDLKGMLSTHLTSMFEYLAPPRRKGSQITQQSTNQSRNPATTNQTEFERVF
Sequence of 266 human kinases (Homo sapiens, UniProt P06493) (P06493 whole entry): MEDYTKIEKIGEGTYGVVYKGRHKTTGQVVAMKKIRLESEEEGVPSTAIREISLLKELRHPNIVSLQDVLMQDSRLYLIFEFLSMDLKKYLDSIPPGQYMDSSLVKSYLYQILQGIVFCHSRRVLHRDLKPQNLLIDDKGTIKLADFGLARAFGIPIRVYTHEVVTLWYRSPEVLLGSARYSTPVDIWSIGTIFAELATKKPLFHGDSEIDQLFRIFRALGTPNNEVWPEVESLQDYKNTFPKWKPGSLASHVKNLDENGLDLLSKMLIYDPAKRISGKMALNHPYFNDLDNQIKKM
Sequence of 266 human kinases (Homo sapiens, UniProt Q9HBH9) (Q9HBH9 whole entry): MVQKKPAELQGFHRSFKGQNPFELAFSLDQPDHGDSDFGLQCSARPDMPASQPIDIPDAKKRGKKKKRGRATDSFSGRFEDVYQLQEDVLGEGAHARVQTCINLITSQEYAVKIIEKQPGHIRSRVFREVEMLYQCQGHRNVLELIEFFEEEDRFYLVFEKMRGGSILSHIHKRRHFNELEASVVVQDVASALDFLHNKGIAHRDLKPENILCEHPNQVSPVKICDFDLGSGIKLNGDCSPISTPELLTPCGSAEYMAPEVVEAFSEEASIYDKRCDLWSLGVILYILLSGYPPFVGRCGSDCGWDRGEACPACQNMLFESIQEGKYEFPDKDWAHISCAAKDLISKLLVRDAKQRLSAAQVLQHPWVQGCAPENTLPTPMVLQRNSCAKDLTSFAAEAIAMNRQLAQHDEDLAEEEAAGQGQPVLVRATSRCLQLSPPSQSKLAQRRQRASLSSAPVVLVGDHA

HRRIKAWLKKIKALARQLGVAA (mammal) [MMI-0500]
% activity (266 human kinases [1]): 36% | % activity (266 human kinases [2]): 6% | % activity (266 human kinases [3]): 6% | % activity (266 human kinases [4]): 57%

YARAAARQARAKALNRQLGVA (mammal) [MMI-0200]
% activity (266 human kinases [5]): 88%
